In this assay the target is σ2 subunit of the AP2 core (σ2-adaptin 1-143) (mouse, UniProt P62743 1-142). The experiment in a line: crystal structure.

The text below walks through data of PMC4340503 (Nature, 2008).

Where no end group is shown, it is not given here. [ ]: non-standard residue; d: D form. pS = N[C@@H](COP(=O)(O)O)C(=O)O

Chain of σ2 subunit of the AP2 core (σ2-adaptin 1-143) (P62743 whole entry, looked up, tested part not stated): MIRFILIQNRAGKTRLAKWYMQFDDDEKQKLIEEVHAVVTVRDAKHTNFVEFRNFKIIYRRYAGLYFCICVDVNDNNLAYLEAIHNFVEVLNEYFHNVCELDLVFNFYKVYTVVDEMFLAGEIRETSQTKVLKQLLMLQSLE

For RM[pS]QIKRLLSE [CD4 dileucine peptide RM(phosphoS)QIKRLLSE (Q peptide), as co-crystallised], the binding result is on record as “binds”.
